Measured values published in US20250011363A1, “OPTIMIZED SHORTENED PEPTIDE THAT BINDS TO ACETYLCHOLINE RECEPTOR, AND USE THEREOF” (SKINMED CO., LTD., priority 2021, published 2025).

The binders below were run against acetylcholine receptor (assay: SPR, AchR immobilized on chip).

Row | Binder | Binding affinity (relative to RRQRR) (relative value to the RRQRR sequence)
1 | RRQRRT | 117
2 | VRRQRR | 135
3 | KRRQRR | 173
4 | RRQRRV | 120
5 | WRRQRR | 138
6 | RRQRRW | 129
7 | TRRQRR | 103
8 | NRRQRR | 113
9 | FRRQRR | 143
10 | RRQRRP | 137
11 | RRQRRN | 109
12 | RRQRRR | 192
13 | SRRQRR | 121
14 | RRQRRA | 113
15 | RRQRRY | 105
16 | RRQRRC | 126
17 | RRQRRL | 141
18 | HRRQRR | 164
19 | ARRQRR | 129

Next, values leading:

Row | Binding affinity (relative to RRQRR) (relative value to the RRQRR sequence) | Binder
20 | 133 | PRRQRR
21 | 113 | RRQRRS
22 | 132 | RRQRRF
23 | 175 | RRQRRK
24 | 109 | RRQRRG
25 | 132 | GRRQRR
26 | 123 | CRRQRR
27 | 105 | QRRQRR
28 | 144 | LRRQRR
29 | 189 | RRRQRR
30 | 122 | RRQRRM
31 | 101 | RRQRRQ
32 | 133 | RRQRRI
33 | 119 | MRRQRR
34 | 130 | YRRQRR
35 | 121 | IRRQRR

Each binder was assayed against acetylcholine receptor (assay: SPR, peptide at 10 uM, acetylcholine receptor immobilized on chip).

Row | Binder | Binding affinity (RU)
36 | RPSDR [5mer-942] | 11 RU
37 | RMKWK [5mer-644] | 24 RU
38 | KHDGR [5mer-643] | 28 RU
39 | KNHHR [5mer-941] | 21 RU
40 | KHTVK [5mer-647] | 29 RU
41 | KDWIR [5mer-947] | 27 RU

Now from value to binder:

Row | Binding affinity (RU) | Binder
42 | 18 RU | KDSFK [5mer-948]
43 | 25 RU | RYEFK [5mer-944]
44 | 16 RU | KDTKR [5mer-646]
45 | 20 RU | RHKDK [5mer-645]
46 | 32 RU | KYPWR [5mer-946]
47 | 23 RU | RYEKR [5mer-945]
48 | 15 RU | KNKKR [5mer-648]
49 | 22 RU | RAWDR [5mer-642]
50 | 12 RU | KDKGK [5mer-943]
